Measurements as given in patent US20160002343A1 (AbbVie / Abbott, published 2016).

T1: Repulsive guidance molecule A (Mus musculus (Mouse), UniProt Q6PCX7 48-427, GPI anchor at the C-terminus after removal of 428-454. Autocatalytic cleavage between 169 and 170 may split the protein into two disulfide-linked fragments. The letters carry neither.)
T1 sequence: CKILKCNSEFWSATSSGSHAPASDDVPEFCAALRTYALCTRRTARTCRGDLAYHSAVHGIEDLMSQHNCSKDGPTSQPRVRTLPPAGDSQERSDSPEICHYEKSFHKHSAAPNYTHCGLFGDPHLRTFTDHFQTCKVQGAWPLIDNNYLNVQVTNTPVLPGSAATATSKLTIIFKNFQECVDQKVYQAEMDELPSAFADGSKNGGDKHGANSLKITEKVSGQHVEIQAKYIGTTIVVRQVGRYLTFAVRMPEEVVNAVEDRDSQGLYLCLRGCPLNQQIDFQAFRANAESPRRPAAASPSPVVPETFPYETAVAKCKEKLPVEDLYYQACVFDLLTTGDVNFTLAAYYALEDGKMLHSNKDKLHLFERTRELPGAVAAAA


How the values were obtained:
[1] = biological target: Repulsive guidance molecule A (Mus musculus (Mouse)) (UniProt Q6PCX7); experiment: cell-based or functional assay
[2] = biological target: T2, mouse Transferrin Receptor overexpressed on Hek 293 cells (mouse, UniProt Q62351 1-763); experiment: cell-based MSD-ECL binding, Hek293/mTfR cells
T2 construct: whole, on cells; also called mTfR; Hek293/mTfR
Description: Meso-scale Discovery (MSD) Electrochemiluminescence (ECL) assays to screen for antibodies or DVD-Ig proteins that bind a desired target antigen expressed on the cell surface were performed as follows: Hek 293 cells overexpressing mouse Transferrin Receptor were added onto MSD 96-well plates (MSD Cat# L11 XB-3, lot#2290-EA). The plates which were blocked using blocking buffer (30% FBS Serum (Hyclone) in PBS) at 37° C. for 1 hour. After incubating at room temperature (RT) for 30 minutes with mild agitation, plates were washed with DPBS 3 times and Abs/DVD-Ig proteins (10,000 ng/ml) were added. After incubating for 1 hour at RT, plates were washed 3 times with DPBS and 25 μl of Goat anti-human Sulfo TAG (MSD Cat# R32AC-, Lot# W001162) at 1 μg/ml was added. Following incubation at RT for 1 hour, plates were washed and MSD read buffer was added before reading on a MSD SECTOR Imager 6000. EC50 values were obtained using Xlfit4 software package.

[3] = biological target: T1, Repulsive guidance molecule A; experiment: cell-based or functional assay

T2 sequence (Q62351 whole entry): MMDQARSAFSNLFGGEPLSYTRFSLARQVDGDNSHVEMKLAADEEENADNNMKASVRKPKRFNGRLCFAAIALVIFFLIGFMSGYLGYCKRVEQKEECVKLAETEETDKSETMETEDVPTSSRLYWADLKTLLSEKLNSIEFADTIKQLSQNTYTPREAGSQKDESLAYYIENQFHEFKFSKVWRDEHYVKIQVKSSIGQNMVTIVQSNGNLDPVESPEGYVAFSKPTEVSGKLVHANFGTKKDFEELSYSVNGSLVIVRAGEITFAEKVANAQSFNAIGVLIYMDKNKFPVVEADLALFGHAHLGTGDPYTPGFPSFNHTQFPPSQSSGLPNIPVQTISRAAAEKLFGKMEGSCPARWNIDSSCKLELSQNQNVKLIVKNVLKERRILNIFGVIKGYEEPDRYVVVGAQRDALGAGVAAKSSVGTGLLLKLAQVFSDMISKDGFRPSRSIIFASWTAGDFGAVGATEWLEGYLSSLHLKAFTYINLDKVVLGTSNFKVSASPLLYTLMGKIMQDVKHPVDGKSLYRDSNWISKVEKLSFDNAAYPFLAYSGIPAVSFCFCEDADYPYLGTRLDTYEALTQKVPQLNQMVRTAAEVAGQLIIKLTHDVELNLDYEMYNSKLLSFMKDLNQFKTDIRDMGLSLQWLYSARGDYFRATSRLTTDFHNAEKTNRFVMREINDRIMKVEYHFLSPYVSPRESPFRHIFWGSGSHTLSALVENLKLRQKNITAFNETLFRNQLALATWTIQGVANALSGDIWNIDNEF

| BMP Assay IC50 [1] [nM] | BMP Assay IC50 [3] [nM] | Binder | other results |
| --- | --- | --- | --- |
| 0.014 | – | RGMA(AE12-1)-GS-TfR(AB402) (bispecific antibody, part only; not given: anti-TfR domains, constants, not shown: a dimerising Fc or GST) heavy, part: EVQLVQSGAEVKKPGASVKVSCKASGYTFTSHGISWVRQAPGQGLDWMGWISPYSGNTNYAQKLQGRVTMTTDTSTSTAYMELSSLRSEDTAVYYCARVGSGPYYYMDVWGQGTLVTVSSGGGGSGGGGS light, part: QSALTQPRSVSGSPGQSVTISCTGTSSSVGDSIYVSWYQQHPGKAPKLMLYDVTKRPSGVPDRFSGSKSGNTASLTISGLQAEDEADYYCCSYAGTDTLFGGGTKVTVLGGGSGGGGSG | – |
| 3.12 | – | TfR(AB405)-GS-RGMA(AE12-1) (bispecific antibody, part only; not given: anti-TfR domains, constants, not shown: a dimerising Fc or GST) heavy, part: GGGGSGGGGSEVQLVQSGAEVKKPGASVKVSCKASGYTFTSHGISWVRQAPGQGLDWMGWISPYSGNTNYAQKLQGRVTMTTDTSTSTAYMELSSLRSEDTAVYYCARVGSGPYYYMDVWGQGTLVTVSS light, part: GGSGGGGSGQSALTQPRSVSGSPGQSVTISCTGTSSSVGDSIYVSWYQQHPGKAPKLMLYDVTKRPSGVPDRFSGSKSGNTASLTISGLQAEDEADYYCCSYAGTDTLFGGGTKVTVLG | – |
| – | – | DVD2366 (bispecific antibody, DVD-Ig) VH-VH: EVQLLESGGGLVQPGGSLRLSCAASGFTFSNYGMSWVRQAPGKGLEWVASIRSGGGRTYYSDNVKGRFTISRDNSKNTLYLQMNSLRAEDTAVYYCVRYDHYSGSSDYWGQGTLVTVSSASTKGPQVQLVQSGAEVKKPGASVKVSCKASGFTFSNYGMHWIRQAPGQGLEWIAMIYYDSSKMNYADTVKGRFTITRDNSTNTLYMELSSLRSEDTAVYYCAVPTSHYVVDVWGQGTTVTVSS VL-VL: DVVMTQSPLSLPVTPGEPASISCKSSQSLLDSDGKTYLNWLLQKPGQSPQRLIYLVSKLDSGVPDRFSGSGSGTDFTLKISRVEAEDVGVYYCWQGTHFPRTFGQGTKVEIKRTVAAPEIVMTQSPATLSVSPGERATLSCQASQDIGNWLAWYQQKPGQSPRLLIYGATSLADGVPARFSGSRSGTEFTLTISSLQSEDFAVYYCLQAYNTPWTFGGGTKVEIK | binding result [2]: no binding (tested: 10,000 ng/ml) |
| – | < 0.025 | RGMA(AE12-1)-GS-TfR(AB403) DVD-Ig protein (bispecific antibody, human IgG1, not shown: a dimerising Fc or GST) heavy: EVQLVQSGAEVKKPGASVKVSCKASGYTFTSHGISWVRQAPGQGLDWMGWISPYSGNTNYAQKLQGRVTMTTDTSTSTAYMELSSLRSEDTAVYYCARVGSGPYYYMDVWGQGTLVTVSSGGGGSGGGGSEVQLVESGGGLVQPGGSLRLSCAASGFTFSNYGMHWIRQAPGKGLEWIAMIYYDSSKMNYADTVKGRFTISRDNAKNSLYLQMNSLRAEDTAVYYCAVPTSHYVVDVWGQGTTVTVSS light: QSALTQPRSVSGSPGQSVTISCTGTSSSVGDSIYVSWYQQHPGKAPKLMLYDVTKRPSGVPDRFSGSKSGNTASLTISGLQAEDEADYYCCSYAGTDTLFGGGTKVTVLGGGSGGGGSGEIVMTQSPATLSVSPGERATLSCQASQDIGNWLAWYQQKPGQSPRLLIYGATSLADGVPARFSGSRSGTEFTLTISSLQSEDFAVYYCLQAYNTPWTFGGGTKVEIKR | – |
| – | 0.73 | TfR(AB405)-SL-RGMA(AE12-1) (bispecific antibody) VH: QVQLVQSGAEVKKPGASVKVSCKASGFTFSNYGMHWIRQAPGQGLEWIAMIYYDSSKMNYADTVKGRFTITRDNSTNTLYMELSSLRSEDTAVYYCAVPTSHYVVDVWGQGTTVTVSSASTKGPEVQLVQSGAEVKKPGASVKVSCKASGYTFTSHGISWVRQAPGQGLDWMGWISPYSGNTNYAQKLQGRVTMTTDTSTSTAYMELSSLRSEDTAVYYCARVGSGPYYYMDVWGQGTLVTVSS VL: EIVMTQSPATLSVSPGERATLSCQASQDIGNWLAWYQQKPGQSPRLLIYGATSLADGVPARFSGSRSGTEFTLTISSLQSEDFAVYYCLQAYNTPWTFGGGTKVEIKRTVAAPSVFIFPPQSALTQPRSVSGSPGQSVTISCTGTSSSVGDSIYVSWYQQHPGKAPKLMLYDVTKRPSGVPDRFSGSKSGNTASLTISGLQAEDEADYYCCSYAGTDTLFGGGTKVTVL | – |
| 0.436 | – | RGMA(AE12-1)-SS-TfR(AB402) (bispecific antibody, part only; not given: Inner anti-TfR domains, linkers, constant regions, not shown: a dimerising Fc or GST) heavy, part: EVQLVQSGAEVKKPGASVKVSCKASGYTFTSHGISWVRQAPGQGLDWMGWISPYSGNTNYAQKLQGRVTMTTDTSTSTAYMELSSLRSEDTAVYYCARVGSGPYYYMDVWGQGTLVTVSS light, part: QSALTQPRSVSGSPGQSVTISCTGTSSSVGDSIYVSWYQQHPGKAPKLMLYDVTKRPSGVPDRFSGSKSGNTASLTISGLQAEDEADYYCCSYAGTDTLFGGGTKVTVLG | – |
| 0.701 | – | TfR(AB405)-LL-RGMA(AE12-1) (bispecific antibody, part only; not given: Outer anti-TfR domains, linkers, constant regions, not shown: a dimerising Fc or GST) heavy, part: EVQLVQSGAEVKKPGASVKVSCKASGYTFTSHGISWVRQAPGQGLDWMGWISPYSGNTNYAQKLQGRVTMTTDTSTSTAYMELSSLRSEDTAVYYCARVGSGPYYYMDVWGQGTLVTVSS light, part: QSALTQPRSVSGSPGQSVTISCTGTSSSVGDSIYVSWYQQHPGKAPKLMLYDVTKRPSGVPDRFSGSKSGNTASLTISGLQAEDEADYYCCSYAGTDTLFGGGTKVTVLG | – |
| – | 0.25 | RGMA (AE12-1) (antibody, V domains shown) VH: EVQLVQSGAEVKKPGASVKVSCKASGYTFTSHGISWVRQAPGQGLDWMGWISPYSGNTNYAQKLQGRVTMTTDTSTSTAYMELSSLRSEDTAVYYCARVGSGPYYYMDVWGQGTLVTVSS VL: QSALTQPRSVSGSPGQSVTISCTGTSSSVGDSIYVSWYQQHPGKAPKLMLYDVTKRPSGVPDRFSGSKSGNTASLTISGLQAEDEADYYCCSYAGTDTLFGGGTKVTVLG | – |
| – | < 0.025 | RGMA(AE12-1)-LS-TfR(AB403) (bispecific antibody) VH: EVQLVQSGAEVKKPGASVKVSCKASGYTFTSHGISWVRQAPGQGLDWMGWISPYSGNTNYAQKLQGRVTMTTDTSTSTAYMELSSLRSEDTAVYYCARVGSGPYYYMDVWGQGTLVTVSSASTKGPSVFPLAPEVQLVESGGGLVQPGGSLRLSCAASGFTFSNYGMHWIRQAPGKGLEWIAMIYYDSSKMNYADTVKGRFTISRDNAKNSLYLQMNSLRAEDTAVYYCAVPTSHYVVDVWGQGTTVTVSS VL: QSALTQPRSVSGSPGQSVTISCTGTSSSVGDSIYVSWYQQHPGKAPKLMLYDVTKRPSGVPDRFSGSKSGNTASLTISGLQAEDEADYYCCSYAGTDTLFGGGTKVTVLGQPKAAPEIVMTQSPATLSVSPGERATLSCQASQDIGNWLAWYQQKPGQSPRLLIYGATSLADGVPARFSGSRSGTEFTLTISSLQSEDFAVYYCLQAYNTPWTFGGGTKVEIK | – |
| – | 1.18 | RGMA(AE12-1)-SS-TfR(AB403) (bispecific antibody) VH: EVQLVQSGAEVKKPGASVKVSCKASGYTFTSHGISWVRQAPGQGLDWMGWISPYSGNTNYAQKLQGRVTMTTDTSTSTAYMELSSLRSEDTAVYYCARVGSGPYYYMDVWGQGTLVTVSSASTKGPEVQLVESGGGLVQPGGSLRLSCAASGFTFSNYGMHWIRQAPGKGLEWIAMIYYDSSKMNYADTVKGRFTISRDNAKNSLYLQMNSLRAEDTAVYYCAVPTSHYVVDVWGQGTTVTVSS VL: QSALTQPRSVSGSPGQSVTISCTGTSSSVGDSIYVSWYQQHPGKAPKLMLYDVTKRPSGVPDRFSGSKSGNTASLTISGLQAEDEADYYCCSYAGTDTLFGGGTKVTVLGQPKAAPEIVMTQSPATLSVSPGERATLSCQASQDIGNWLAWYQQKPGQSPRLLIYGATSLADGVPARFSGSRSGTEFTLTISSLQSEDFAVYYCLQAYNTPWTFGGGTKVEIK | – |
